Data as given in the nanobody polyreactivity screen of Harvey et al. (2022).

Experiment: yeast display, Sf9 membrane polyspecificity reagent, FACS + sequencing; frameworks hold sequencing errors
Outline: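 After 36–48 hours of galactose induction, yeast (Saccharomyces cerevisiae BJ5465) displaying a synthetic nanobody library were stained at 4 °C for 1 hour with 10% biotinylated, detergent-solubilized Sf9 membrane reagent. Streptavidin microbeads enriched the stained cells before FACS sorting into low and high (top ~1%) gates on anti-HA and streptavidin fluorescence. Each clone's polyreactivity label reflects its gate of origin.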

Sequence	polyreactivity (PSR sort gate)
QVQLVESGGGLVQAGGSLSLSCAASGSTFVIYAMGWYRQAPGKERELVASIRGRTGSTYNADSVKGRFTISRDNAKNTVYLQMNSLKPEDTAVYYCAAKPGYKSKMDYWGQGTQVSVSS	high polyreactivity
QVQLVESGGGLVQAGGSLSLSCAASGSTFVWYAMGWYRQAPGTERELVATITYGGGSTNYADSVKGRFTISRDNAKNTVYLQMNSLKPEDTAVYYCNADTYFESGYWGQGTLVTVSS	low polyreactivity
QVQLVESGGGLVQAGGSLSLSCAASGSTLRQYAMGWYRQAPGKERELVAGISYRGGRTYYADSVKVRFTISRDNAKNTVYLQMNSLKPEDTAVYYCNALRHYGDISVDCDDYWGQGTQVTVSS	high polyreactivity
QVQLVESGGGLVQAGGSLSLSCAATGRLFSWYTMGWYRQAPGKERELVAAISWSGTSTYYADSVKGRFTISRDNAKNTVYLQMNSLKPEDTAVYYCNKVNPANIRRSYDYWGQGTQVTVSS	high polyreactivity
QVQLVESGGGLVQAGGSLSLSCAATGSIFPPNAMGWYRQAPGKEREFVASITSSGGITNYADSVKGRFTISRDTAKNTVYLQMNSLKTEDTAVYYCAAKYYGGTRFRPYGYWGQGTQVTVSS	high polyreactivity
QVQLVESGGGLVQAGGSLSLSCAAYGRTFYRNAMGWYRQAPGKERELVAAISYSGGSTYYADSVKGRFTISRDNAKNTVYLQMNILKPEDTAVYYCNVLYRVDYYRRVDYWGQGTQVSVSS	high polyreactivity
QVQLVESGGGLVQAGGSLSLSCADSGRNFAPYAMGWYRQAPGKERELVAAITSGGSTNYADSVKGRFTISRDNAKNTVYLQMNSLKPEDTAVYYCAARQPGTRYPYDYWGQGTQVTVSS	high polyreactivity
QVQLVESGGGLVQAGGSLSLSCDASGRIFPKYAMGWYRQAPGKEREMVAGITKLVGSTYYADSVKGRFTISRDNAKNTVYLQMNSLKPEDTAVYYCAADYSYLIDYLDPEKEGMDFWGQGTQVTVSS	low polyreactivity
QVQLVESGGGLVQAGGSLSLSSAASGFTSTLNDMGWYRQAPGKERELVAAISNGGSTYYADSVKGRFTISRDNAKNTVYLQMNSLKPEDTAVYYCAVTATAPQEGDYWGQGTQVTVSS	low polyreactivity
QVQLVESGGGLVQAGGSLSLTCAASGSIFRYYAMGWYRQAPGKERELVADITSSGGSTYYADSVKGRFTISRDNAKNTDYLQMNSLKPEDTAVYYCAALYWFYVYPFTEYDYWGQGTQVTVSS	low polyreactivity
QVQLVESGGGLVQAGGSLSLTCAASGSTFDWYAMRLYRQAPGKERELVAASTSGGSTYYADSVKGRFTISRDNAKITVYLQMNSLKPEDTAVYYCAAESRQVRYILYYYWGQGTQVTVSS	low polyreactivity
QVQLVESGGGLVQAGGSLSLTCAASGSTFPGYPMGWYRQAPGKERELVAAINWRGDSTYYADSVKGRFTISRDNAKNTVYLQMNSLKPEDTAVYYCAAVRGTGTRRYDYWGQGTQVTVSS	high polyreactivity
QVQLVESGGGLVQAGGSNRLSCAASGCIFSRYLMGWYRQAPGIETELVADISGSRGRTYYADSVKGRFTISRDNAKKTVYLQMNSLKPEDTAVYYSNKVWFGYSGVDDYWGQGTQVTVSS	high polyreactivity
QVQLVESGGGLVQAGGSPRLSCAASGRIFHPYAMGWYRQAPGKERELVATISWSGGSTTYADSVKGRFTISRDNAKNTVYLQMNSLKPEDTAVYYCNADYWWSYVRFDYWGQGTQVTVSS	low polyreactivity
QVQLVESGGGLVQAGGSPRLSCADSGGIFGIYAMGWYRPAPGKERELVAAIRRGGSTSYADSVKGRFTISRDNAMNTVYLQMNSLKPEDTAVYYCAAGSYYRYGYWGQGTQVTVSS	high polyreactivity
QVQLVESGGGLVQAGGSQRLSCAASGSIFDLKAMGSYRQAPGKERELVAAISSGGGTYYADSVKGRFTISRDNAKNTVYLQMNSLKPEDTAVYYCNRVTRWTYNYWGQGTQVTVSS	high polyreactivity
QVQLVESGGGLVQAGGSRLICAASGLIFIWYTMGWYRQAPGKERELVAAIDSSGGNTYYADSLKGRFSISRDNAKNTVYLQMNSLKPEDTAVYYCAKDVGHGAGNLMGYWGQGTQVTVSS	low polyreactivity
QVQLVESGGGLVQAGGSRLSCAASGLIFISYTMGWYRQAPGKERELVAAIDSSGGNTYYADSVKGRFTISRDNAKNTVYLQMNSLKPDDTAVYYCNAAWPYKSVEYCGQGTQVTVSS	low polyreactivity
QVQLVESGGGLVQAGGSRRLSCAAAGISFGWYSMGWYRQAPGKERELVATISQSGTSTYYADSVKGRFTISRDNAKNTVYLQMNSLKPEDTAVYYCAADYIRGYYYRVPLEVDYWGQGNQVTVSS	low polyreactivity
QVQLVESGGGLVQAGGSRRLSCAASGFMFGVNAMGWYRQAPGKERELVAVISVRGGSTYYADSLKGRFTISRDNAKNTVYLQMNSLKPEDTAVYYCAADTFAGYYYWGQGTQVTVSS	high polyreactivity
QVQLVESGGGLVQAGGSRRLSCAASGFTFPHYLGRYRQAPGKERELVAAIIVSGGSTSYADSVKGRFTMSRDNAKNTVYLQMNSLKPEDTAVYYCAKDLRFRLFSYPSDYWGQGTQVTVSS	low polyreactivity
QVQLVESGGGLVQAGGSRRLSCAASGNTFYGYAMGWYRQAPGKERELVASITMSGDSTYYADSVKGRFTISRDNAKNTVYLQMNSLKPEYTSVYYCAGVYTYPLGYYHYTYDYWGQGTQVTVSS	low polyreactivity

Sequence	polyreactivity (PSR sort gate)
QVQLVESGGGLVQAGGSRRLSCAASGRIFRGYAMGWYRQAPGKERELVAAISASGGSTYYADSVKGRYTISRDIAKNTVYLLMISLKQVDTAVYYCATGGYARYDFWGQGTQVTVSS	high polyreactivity
QVQLVESGGGLVQAGGSRRLSCAASGRTFVSNVMGWYRPAPGKDRELVAAINWSGDSTYYADSVKGRFTISRDNAKNTVYLQMNSLKPEDTAGYYCAVQGGYFDTWDGDYWGQGTQVTVSS	low polyreactivity
QVQLVESGGGLVQAGGSRRLSCAASGSIFPVYAMGWYRQAPGKERELVASISTGGSTYYADSVKGRFTISRDNAKNTVYFQLNSLKPEDTAVYYCAATGWAYGYGYGYWGQGTQVTESS	low polyreactivity
QVQLVESGGGLVQAGGSRRLSCAASGSIFSGNTMGWYRQAPGKERELVAAISSGGSTKYADSVKGRFTISRDNAKNTVYFQMNRLNPEDSAVYFCGATSSYRLRDRHRIWYGYWGQGTEVTVSS	high polyreactivity
QVQLVESGGGLVQAGGSRRLSCAASGSIFVKYAMGWYRQAPGKERELVAAKSQSGVRTYYADSVKGRFTISRDNAKNTVYLQMNSLTPEDTAVYYCAAYSGYYYWGQGTQVTVSS	high polyreactivity
QVQLVESGGGLVQAGGSRRLSCAASGSIFYTYLMGWYRPAPGTDRELVAAISASGVRTYYADSVKGRFTISRDNAKITVYLEMNSLKPEDTAVYYCAADRQRADYYWGQGRQVTVSS	high polyreactivity
QVQLVESGGGLVQAGGSRRLSCAATGRTFGRYSMGWDRQAPGKERELVAAITTIGGSTYYADSVKGRFTISRDNAKNTVYLQMNSLKTEDTAVYYCAAGWVTNSDGMDYWGQGTQVTVSS	low polyreactivity
QVQLVESGGGLVQAGGSRRLSCAPSGKIFGSNAMGSYRQAPGKERELVAAISKSCGRTYYADSVKGRFTISRDNAKNTVYLQMNCLKPEDSAVYYCGAYDGYYEFDYWGQGTQVPVSS	low polyreactivity
QVQLVESGGGLVQAGGSRRLSFAASGFTFKYYAMGWYRQAPGKERELVDAISRRGGSTSYADSVKGRFTISRDNAKNTVYLKMNSLKPEDTSVYYLAADSSFERSSDYWGQGTQVTVSS	high polyreactivity
QVQLVESGGGLVQAGGSVRLSCAASGFIISYYAMGWYRQAPGKERELFAAISWSGGSTYYADSVKGSFTISRDNAKNTVYLQMNSLKPEDTAVYYCAADFLYGAEGNDYWGQGTQVTVSS	high polyreactivity
QVQLVESGGGLVQAGGSVRLSCAASGFTFGYYAMGWYRQAPGKERELVASISSVDNTYYADSVKGRFTISRDNAKNTVSFQMNSLKPEDTAVDYCAARYRDYFVRGGYWGQGTQVSVSS	high polyreactivity
QVQLVESGGGLVQAGGSVRLSCAASGGTFKANAMGWYRQAPGKERELVAAISWSGGSTYYADSVKGRFTISRDNAKNSVYLQMNSLKPEDTAVYYCRYWKYRSYDYWGQGTQVTVSS	high polyreactivity
QVQLVESGGGLVQAGGSVRLSCAASGRIFGIYAMGWYRQAPGKERELVAAITWIGGRTYYADSVKGRFTISRDNAKNTVYLQMNSLKPEDTAVYYCNAVYTQRFATYRRYDYWGQGTQVTVSS	high polyreactivity
QVQLVESGGGLVQAGGTLRFSCAASGFTFYVYAMGWYRQAPGKERELVAAISKSGGSTYYADSVKGRFTISRDNAKNTVYLQMNSLKPEDTAVYYCAVYDKRSGYRGGHRYNSWGQGTQVTVSS	high polyreactivity
QVQLVESGGGLVQAGGTLRFSCAASGLTIDRYAMGWYRQAPGKERELVAAISFTGDRTYYADSVKGRFTISRDNAKNTVYLQMNSLKPEDTAVYYCAVRRYGYRKYDSWGQGTQVTVSS	high polyreactivity
QVQLVESGGGLVQAGGTLRLICAASGSIFGYYTMGWYRQASGKERELVAAITSGGSTNYADSVKGRFTISRDNAKNTVYLQMNSLKPEDTAVYYCATVSYYPWRYDYWGQGTQGTVSS	low polyreactivity
QVQLVESGGGLVQAGGTLRLSCAASGFTFAVYAMGWYRQAPGKERELVAAISRSGTRTYYADSVKGRFTISRDNSKNPVYIQMNSLKPEDTAVYYCAADKYRNGYDYWGQGTQVTVSS	low polyreactivity
QVQLVESGGGLVQAGGTLRLSCAASGFTLSVYAMGWYIQAPGKDRELVAAITRSTGSTYYADSVKGRFTISRDNAKNTVYLQMNSLKPEDTAVYYCNAGHFAHHHGYYRSKYDYWGQGTQVTVSS	low polyreactivity
QVQLVESGGGLVQAGGTLRLSCAASGGIFVANAMGWYRQAPGKERELVAAISRSGGSTYYADSVKGRFTISRDNAKNTVYLQMNSLKPEDTAVYYCAAKSRRQYTVGLTSDYWGQGTQVTVSS	high polyreactivity
QVQLVESGGGLVQAGGTLRLSCAASGGTFVSRAMGWYRQAPGKERELVAAISFSGDSTYYADSVKGRFTISRDNAKNTVYLQMNSLKPEDTAVYYCRFYSYWSWLGREYDYWGQGTQVTVSS	low polyreactivity
QVQLVESGGGLVQAGGTLRLSCAASGMTFSRNGMGWYRQAPGKEREVVADISYRGGRTYYADSVKGRFTFSRDNAKNTVYLQMHSLKPEDTAVYYCNAVFLVGVGPTSDYWGQRTQVTVSS	high polyreactivity
